We go through 16 molecules from US20150344570A1 (published 2015).

T1: FcγRIIa R (extracellular domain, His tag at the C terminus) (human, UniProt P12318 34-217)
T1 construct: extracellular domain; Soluble analyte in Biacore; also called FcgRIIa R type; 2aR
T1 sequence (looked up): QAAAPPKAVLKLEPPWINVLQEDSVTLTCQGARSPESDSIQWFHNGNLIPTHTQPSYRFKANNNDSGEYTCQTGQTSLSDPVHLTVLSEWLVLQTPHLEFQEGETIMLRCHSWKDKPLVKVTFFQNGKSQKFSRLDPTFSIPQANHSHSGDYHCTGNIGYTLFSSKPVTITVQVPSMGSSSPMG

B1: GpH7-A5/GpH7-B3 variant T335_15Y/GpL16-k0 (antibody, human IgG1, kappa)
heavy 1: not shown
heavy 2: not shown
light: DIVMTQSPLSLPVTPGEPASISCQASESLVHSNRNTYLHWYLQKPGQSPQLLIYKVSNRFSGVPDRFSGSGSGTDFTLKISRVEAEDVGVYYCSQNTHVPPTFGQGTKVEIERTVAAPSVFIFPPSDEQLKSGTASVVCLLNNFYPREAKVQWKVDNALQSGNSQESVTEQDSKDSTYSLSSTLTLSKADYEKHKVYACEVTHQGLSSPVTKSFNRGEC
notes: heterodimerized; also called He Ab
B2: GpH7-A5/GpH7-B3 variant I332_10E/GpL16-k0 (antibody, human IgG1, kappa)
heavy 1: not shown
heavy 2: not shown
light: DIVMTQSPLSLPVTPGEPASISCQASESLVHSNRNTYLHWYLQKPGQSPQLLIYKVSNRFSGVPDRFSGSGSGTDFTLKISRVEAEDVGVYYCSQNTHVPPTFGQGTKVEIERTVAAPSVFIFPPSDEQLKSGTASVVCLLNNFYPREAKVQWKVDNALQSGNSQESVTEQDSKDSTYSLSSTLTLSKADYEKHKVYACEVTHQGLSSPVTKSFNRGEC
notes: as for B1
B3: GpH7-A5/GpH7-B3 variant H268_13S/GpL16-k0 (antibody, human IgG1, kappa)
heavy 1: not shown
heavy 2: not shown
light: DIVMTQSPLSLPVTPGEPASISCQASESLVHSNRNTYLHWYLQKPGQSPQLLIYKVSNRFSGVPDRFSGSGSGTDFTLKISRVEAEDVGVYYCSQNTHVPPTFGQGTKVEIERTVAAPSVFIFPPSDEQLKSGTASVVCLLNNFYPREAKVQWKVDNALQSGNSQESVTEQDSKDSTYSLSSTLTLSKADYEKHKVYACEVTHQGLSSPVTKSFNRGEC
notes: as for B1
B4: GpH7-A5/GpH7-B3 variant K326_10E/GpL16-k0 (antibody, human IgG1, kappa)
heavy 1: not shown
heavy 2: not shown
light: DIVMTQSPLSLPVTPGEPASISCQASESLVHSNRNTYLHWYLQKPGQSPQLLIYKVSNRFSGVPDRFSGSGSGTDFTLKISRVEAEDVGVYYCSQNTHVPPTFGQGTKVEIERTVAAPSVFIFPPSDEQLKSGTASVVCLLNNFYPREAKVQWKVDNALQSGNSQESVTEQDSKDSTYSLSSTLTLSKADYEKHKVYACEVTHQGLSSPVTKSFNRGEC
notes: as for B1
B5: GpH7-A5/GpH7-B3 variant K326_14T/GpL16-k0 (antibody, human IgG1, kappa)
heavy 1: not shown
heavy 2: not shown
light: DIVMTQSPLSLPVTPGEPASISCQASESLVHSNRNTYLHWYLQKPGQSPQLLIYKVSNRFSGVPDRFSGSGSGTDFTLKISRVEAEDVGVYYCSQNTHVPPTFGQGTKVEIERTVAAPSVFIFPPSDEQLKSGTASVVCLLNNFYPREAKVQWKVDNALQSGNSQESVTEQDSKDSTYSLSSTLTLSKADYEKHKVYACEVTHQGLSSPVTKSFNRGEC
notes: as for B1
B6: GpH7-A5/GpH7-B3 variant K326_06M/GpL16-k0 (antibody, human IgG1, kappa)
heavy 1: not shown
heavy 2: not shown
light: DIVMTQSPLSLPVTPGEPASISCQASESLVHSNRNTYLHWYLQKPGQSPQLLIYKVSNRFSGVPDRFSGSGSGTDFTLKISRVEAEDVGVYYCSQNTHVPPTFGQGTKVEIERTVAAPSVFIFPPSDEQLKSGTASVVCLLNNFYPREAKVQWKVDNALQSGNSQESVTEQDSKDSTYSLSSTLTLSKADYEKHKVYACEVTHQGLSSPVTKSFNRGEC
notes: as for B1
B7: GpH7-A5/GpH7-B3 variant K326_09D/GpL16-k0 (antibody, human IgG1, kappa)
heavy 1: not shown
heavy 2: not shown
light: DIVMTQSPLSLPVTPGEPASISCQASESLVHSNRNTYLHWYLQKPGQSPQLLIYKVSNRFSGVPDRFSGSGSGTDFTLKISRVEAEDVGVYYCSQNTHVPPTFGQGTKVEIERTVAAPSVFIFPPSDEQLKSGTASVVCLLNNFYPREAKVQWKVDNALQSGNSQESVTEQDSKDSTYSLSSTLTLSKADYEKHKVYACEVTHQGLSSPVTKSFNRGEC
notes: as for B1
B8: GpH7-A5/GpH7-B3 variant G236_09D/GpL16-k0 (antibody, human IgG1, kappa)
heavy 1: not shown
heavy 2: not shown
light: DIVMTQSPLSLPVTPGEPASISCQASESLVHSNRNTYLHWYLQKPGQSPQLLIYKVSNRFSGVPDRFSGSGSGTDFTLKISRVEAEDVGVYYCSQNTHVPPTFGQGTKVEIERTVAAPSVFIFPPSDEQLKSGTASVVCLLNNFYPREAKVQWKVDNALQSGNSQESVTEQDSKDSTYSLSSTLTLSKADYEKHKVYACEVTHQGLSSPVTKSFNRGEC
notes: as for B1
B9: GpH7-A5/GpH7-B3 variant I332_09D/GpL16-k0 (antibody, human IgG1, kappa)
heavy 1: not shown
heavy 2: not shown
light: DIVMTQSPLSLPVTPGEPASISCQASESLVHSNRNTYLHWYLQKPGQSPQLLIYKVSNRFSGVPDRFSGSGSGTDFTLKISRVEAEDVGVYYCSQNTHVPPTFGQGTKVEIERTVAAPSVFIFPPSDEQLKSGTASVVCLLNNFYPREAKVQWKVDNALQSGNSQESVTEQDSKDSTYSLSSTLTLSKADYEKHKVYACEVTHQGLSSPVTKSFNRGEC
notes: as for B1
B10: GpH7-A5/GpH7-B3 variant I332_15Y/GpL16-k0 (antibody, human IgG1, kappa)
heavy 1: not shown
heavy 2: not shown
light: DIVMTQSPLSLPVTPGEPASISCQASESLVHSNRNTYLHWYLQKPGQSPQLLIYKVSNRFSGVPDRFSGSGSGTDFTLKISRVEAEDVGVYYCSQNTHVPPTFGQGTKVEIERTVAAPSVFIFPPSDEQLKSGTASVVCLLNNFYPREAKVQWKVDNALQSGNSQESVTEQDSKDSTYSLSSTLTLSKADYEKHKVYACEVTHQGLSSPVTKSFNRGEC
notes: as for B1
B11: GpH7-A5/GpH7-B3 variant H268_10E/GpL16-k0 (antibody, human IgG1, kappa)
heavy 1: not shown
heavy 2: not shown
light: DIVMTQSPLSLPVTPGEPASISCQASESLVHSNRNTYLHWYLQKPGQSPQLLIYKVSNRFSGVPDRFSGSGSGTDFTLKISRVEAEDVGVYYCSQNTHVPPTFGQGTKVEIERTVAAPSVFIFPPSDEQLKSGTASVVCLLNNFYPREAKVQWKVDNALQSGNSQESVTEQDSKDSTYSLSSTLTLSKADYEKHKVYACEVTHQGLSSPVTKSFNRGEC
notes: as for B1
B12: GpH7-A5/GpH7-B3 variant I332_04F/GpL16-k0 (antibody, human IgG1, kappa)
heavy 1: not shown
heavy 2: not shown
light: DIVMTQSPLSLPVTPGEPASISCQASESLVHSNRNTYLHWYLQKPGQSPQLLIYKVSNRFSGVPDRFSGSGSGTDFTLKISRVEAEDVGVYYCSQNTHVPPTFGQGTKVEIERTVAAPSVFIFPPSDEQLKSGTASVVCLLNNFYPREAKVQWKVDNALQSGNSQESVTEQDSKDSTYSLSSTLTLSKADYEKHKVYACEVTHQGLSSPVTKSFNRGEC
notes: as for B1
B13: GpH7-A5/GpH7-B3 variant G236_10E/GpL16-k0 (antibody, human IgG1, kappa)
heavy 1: not shown
heavy 2: not shown
light: DIVMTQSPLSLPVTPGEPASISCQASESLVHSNRNTYLHWYLQKPGQSPQLLIYKVSNRFSGVPDRFSGSGSGTDFTLKISRVEAEDVGVYYCSQNTHVPPTFGQGTKVEIERTVAAPSVFIFPPSDEQLKSGTASVVCLLNNFYPREAKVQWKVDNALQSGNSQESVTEQDSKDSTYSLSSTLTLSKADYEKHKVYACEVTHQGLSSPVTKSFNRGEC
notes: as for B1
B14: GpH7-A5/GpH7-B3 variant H268_18N/GpL16-k0 (antibody, human IgG1, kappa)
heavy 1: not shown
heavy 2: not shown
light: DIVMTQSPLSLPVTPGEPASISCQASESLVHSNRNTYLHWYLQKPGQSPQLLIYKVSNRFSGVPDRFSGSGSGTDFTLKISRVEAEDVGVYYCSQNTHVPPTFGQGTKVEIERTVAAPSVFIFPPSDEQLKSGTASVVCLLNNFYPREAKVQWKVDNALQSGNSQESVTEQDSKDSTYSLSSTLTLSKADYEKHKVYACEVTHQGLSSPVTKSFNRGEC
notes: as for B1
B15: GpH7-A5/GpH7-B3 variant H268_09D/GpL16-k0 (antibody, human IgG1, kappa)
heavy 1: not shown
heavy 2: not shown
light: DIVMTQSPLSLPVTPGEPASISCQASESLVHSNRNTYLHWYLQKPGQSPQLLIYKVSNRFSGVPDRFSGSGSGTDFTLKISRVEAEDVGVYYCSQNTHVPPTFGQGTKVEIERTVAAPSVFIFPPSDEQLKSGTASVVCLLNNFYPREAKVQWKVDNALQSGNSQESVTEQDSKDSTYSLSSTLTLSKADYEKHKVYACEVTHQGLSSPVTKSFNRGEC
notes: as for B1
B16: GpH7-B3 variant Y300_04F/GpL16-k0 (antibody, human IgG1, kappa)
heavy: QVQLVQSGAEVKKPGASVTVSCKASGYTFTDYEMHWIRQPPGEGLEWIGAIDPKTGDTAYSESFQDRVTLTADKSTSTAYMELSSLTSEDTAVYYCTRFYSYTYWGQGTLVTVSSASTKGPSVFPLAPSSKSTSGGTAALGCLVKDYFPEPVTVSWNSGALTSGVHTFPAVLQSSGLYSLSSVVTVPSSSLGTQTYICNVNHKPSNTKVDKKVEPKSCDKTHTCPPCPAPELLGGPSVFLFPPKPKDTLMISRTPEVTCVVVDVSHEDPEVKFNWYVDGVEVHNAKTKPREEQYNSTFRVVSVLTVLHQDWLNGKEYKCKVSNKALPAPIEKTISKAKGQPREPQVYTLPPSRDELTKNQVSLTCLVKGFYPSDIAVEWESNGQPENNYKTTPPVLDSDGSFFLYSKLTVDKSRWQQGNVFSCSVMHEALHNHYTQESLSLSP
light: DIVMTQSPLSLPVTPGEPASISCQASESLVHSNRNTYLHWYLQKPGQSPQLLIYKVSNRFSGVPDRFSGSGSGTDFTLKISRVEAEDVGVYYCSQNTHVPPTFGQGTKVEIERTVAAPSVFIFPPSDEQLKSGTASVVCLLNNFYPREAKVQWKVDNALQSGNSQESVTEQDSKDSTYSLSSTLTLSKADYEKHKVYACEVTHQGLSSPVTKSFNRGEC
notes: homodimerized; also called Ho Ab

The target in the first test is T1, FcγRIIa R (extracellular domain, His …). Description: SPR (Biacore), relative binding, control GpH7-A5/GpH7-B3/GpL16-k0 = 100. As for the experimental part: Analysis of interaction between objective antibody and the FcγR was carried out using Biacore T100 (GE Healthcare). HBS-EP+ (GE Healthcare) was used as the running buffer, and the measurement temperature was set to 25° C. Chips produced by immobilizing the antigen peptide by the amine coupling method to a Series S Sencor Chip CM5 (GE Healthcare), or alternatively, chips produced by allowing preliminarily biotinylated antigen peptides to interact with and immobilize onto a Series S Sensor Chip SA (certified) (GE Healthcare) were used. Antibodies of interest were captured onto an antigen peptide-immobilized chip, and allowed to interact to each FcγR diluted with running buffer. To regenerate and repeatedly use the chip, the antibodies captured on the chip were washed off by reacting 10 mM glycine-HCl, pH 1.5.
Background: Surface plasmon resonance follows binding to a sensor surface in real time, without labels.
For the molecule B1, the He/Con_2aR is 111 % of control.

As to B2, the He/Con_2aR is 114 % of control.

For B3, the He/Con_2aR was 127 % of control.

As for B4, the He/Con_2aR was 148 % of control.

For the molecule B5, the He/Con_2aR is 134 % of control.

Consider B6, for which the He/Con_2aR was 138 % of control.

Turning to B7, the He/Con_2aR was 148 % of control.

B8: the He/Con_2aR was 106 % of control.

Regarding B9, the He/Con_2aR is 119 % of control.

For the molecule B10, the He/Con_2aR was 110 % of control.

Take B11: the He/Con_2aR was 148 % of control.

In the case of B12, the He/Con_2aR is 105 % of control.

Take B13: the He/Con_2aR was 125 % of control.

As to B14, the He/Con_2aR is 128 % of control.

As to B15, the He/Con_2aR is 149 % of control.

The target is the same in the next test. Description: SPR (Biacore), relative binding, control GpH7-B3/GpL16-k0 = 100.
As to B16, the Ho/Con_2aR was 109 % of control.
